According to the supplement of paper PMC9112550, “Optimization of the antimicrobial peptide Bac7 by deep mutational scanning” (BMC Biology, 2022):

System: Escherichia coli TOP10
Experiment: shrunken log2 fold change of peptide-encoding DNA abundance (4.5 h post-induction vs induction); higher = less antimicrobial activity (less host growth inhibition)
Details: time post-induction: 4.5 h; library: site-saturation at positions 5, 18, 19, 20
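Note: peptides expressed intracellularly from a pBAD plasmid library in pooled LB shake-flask culture, induced with 0.3% L-arabinose, DNA abundance read by NGS, three biological replicates, DESeq2 with apeglm shrinkage.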

Sequence	shrunken log2 fold change
RRIRIRPPRLPRPRPRPRQIPRP	-0.212
RRIRVRPPRLPRPRPRPTQKPRP	0.837
RRIRQRPPRLPRPRPRPVETPRP	-0.00674
RRIRIRPPRLPRPRPRPTGFPRP	-0.0748
RRIRWRPPRLPRPRPRPHAKPRP	0.202
RRIRQRPPRLPRPRPRPNVHPRP	-0.258
RRIRRRPPRLPRPRPRPVLEPRP	0.599
RRIRGRPPRLPRPRPRPRWWPRP	0.667
RRIRSRPPRLPRPRPRPFFFPRP	0.168
RRIRARPPRLPRPRPRPGKWPRP	0.19
RRIRYRPPRLPRPRPRPNMDPRP	-1.3
RRIRQRPPRLPRPRPRPPSIPRP	-0.0422
RRIRQRPPRLPRPRPRPMKRPRP	-0.111
RRIRLRPPRLPRPRPRPYERPRP	-0.148
RRIRMRPPRLPRPRPRPANWPRP	2.4
RRIRKRPPRLPRPRPRPKGPPRP	0.828
RRIRGRPPRLPRPRPRPFAYPRP	0.184
RRIRPRPPRLPRPRPRPYISPRP	-0.75
RRIRMRPPRLPRPRPRPCAIPRP	-0.216
RRIRHRPPRLPRPRPRPCQPPRP	-0.0284
RRIRLRPPRLPRPRPRPMPTPRP	0.449
RRIRVRPPRLPRPRPRPMNRPRP	-0.182
RRIRYRPPRLPRPRPRPPWKPRP	0.0467
RRIRKRPPRLPRPRPRPDQWPRP	0.376
RRIRNRPPRLPRPRPRPCCIPRP	-0.00191

Sequence	shrunken log2 fold change
RRIRSRPPRLPRPRPRPTENPRP	0.148
RRIRVRPPRLPRPRPRPFCQPRP	-0.203
RRIRIRPPRLPRPRPRPLQCPRP	0.0339
RRIRNRPPRLPRPRPRPDDNPRP	-0.0156
RRIRSRPPRLPRPRPRPDCYPRP	-0.374
RRIRWRPPRLPRPRPRPKWEPRP	0.0855
RRIRERPPRLPRPRPRPPDDPRP	0.103
RRIRARPPRLPRPRPRPWFAPRP	0.212
RRIRKRPPRLPRPRPRPGAQPRP	0.496
RRIRPRPPRLPRPRPRPALGPRP	0.964
RRIRERPPRLPRPRPRPQSDPRP	-0.134
RRIRMRPPRLPRPRPRPKKNPRP	1.46
RRIRTRPPRLPRPRPRPGCEPRP	-0.117
RRIRQRPPRLPRPRPRPSITPRP	-0.731
RRIRKRPPRLPRPRPRPDCFPRP	0.315
RRIRIRPPRLPRPRPRPHHCPRP	-0.00699
RRIRHRPPRLPRPRPRPQNGPRP	-0.535
RRIRLRPPRLPRPRPRPESTPRP	0.0274
RRIRPRPPRLPRPRPRPMRKPRP	0.365
RRIRNRPPRLPRPRPRPPFDPRP	0.141
RRIRKRPPRLPRPRPRPLNRPRP	-0.0492
RRIRARPPRLPRPRPRPCGTPRP	0.475
RRIRQRPPRLPRPRPRPMVQPRP	-0.00171
RRIRCRPPRLPRPRPRPDGMPRP	-0.239
RRIRWRPPRLPRPRPRPNDCPRP	-0.0115

Sequence	shrunken log2 fold change
RRIRQRPPRLPRPRPRPVGHPRP	-0.0132
RRIRVRPPRLPRPRPRPRHCPRP	-0.383
RRIRTRPPRLPRPRPRPYDGPRP	-0.0303
RRIRMRPPRLPRPRPRPRMPPRP	0.771
RRIRWRPPRLPRPRPRPEIAPRP	0.355
RRIRLRPPRLPRPRPRPLRGPRP	1.11
RRIRTRPPRLPRPRPRPNQAPRP	0.00454
RRIRPRPPRLPRPRPRPMWPPRP	0.213
RRIRTRPPRLPRPRPRPHQDPRP	-0.245
RRIRNRPPRLPRPRPRPQDDPRP	0.00776
RRIRLRPPRLPRPRPRPHGQPRP	0.0101
RRIRERPPRLPRPRPRPACMPRP	-0.0379
RRIRERPPRLPRPRPRPWRQPRP	-0.00951
RRIRYRPPRLPRPRPRPTPEPRP	0.264
RRIRWRPPRLPRPRPRPKWWPRP	0.266
RRIRQRPPRLPRPRPRPKAQPRP	0.0112
RRIRSRPPRLPRPRPRPIYPPRP	-0.766
RRIRMRPPRLPRPRPRPETDPRP	1.77
RRIRKRPPRLPRPRPRPYNWPRP	-0.155
RRIRMRPPRLPRPRPRPLRDPRP	2.66
RRIRIRPPRLPRPRPRPGYHPRP	-0.298
RRIRVRPPRLPRPRPRPICCPRP	-0.0831
RRIRERPPRLPRPRPRPKKCPRP	-0.0779
RRIRFRPPRLPRPRPRPFWRPRP	0.366
RRIRYRPPRLPRPRPRPWRQPRP	-0.00152

Sequence	shrunken log2 fold change
RRIRIRPPRLPRPRPRPDHMPRP	-0.87
RRIRERPPRLPRPRPRPFFSPRP	-0.358
RRIRLRPPRLPRPRPRPNRAPRP	0.0133
RRIRARPPRLPRPRPRPYIDPRP	-0.186
RRIRQRPPRLPRPRPRPFATPRP	0.275
RRIRLRPPRLPRPRPRPAQSPRP	0.485
RRIRDRPPRLPRPRPRPKYGPRP	-0.0519
RRIRGRPPRLPRPRPRPNPRPRP	0.684
RRIRTRPPRLPRPRPRPLTWPRP	-0.174
RRIRNRPPRLPRPRPRPMAVPRP	-0.0402
RRIRNRPPRLPRPRPRPWHQPRP	-0.094
RRIRKRPPRLPRPRPRPRILPRP	0.0416
RRIRCRPPRLPRPRPRPQLEPRP	-0.135
RRIRHRPPRLPRPRPRPCCIPRP	-0.0109
RRIRYRPPRLPRPRPRPEMYPRP	-0.0203
RRIRIRPPRLPRPRPRPFMSPRP	-0.308
RRIRHRPPRLPRPRPRPIFNPRP	-0.447
RRIRPRPPRLPRPRPRPGHCPRP	0.0859
RRIRPRPPRLPRPRPRPCGPPRP	0.189
RRIRMRPPRLPRPRPRPIMYPRP	-0.171
RRIRNRPPRLPRPRPRPMVPPRP	0.0885
RRIRYRPPRLPRPRPRPQPLPRP	-0.00898
RRIRYRPPRLPRPRPRPQCNPRP	-0.269
RRIRTRPPRLPRPRPRPHNQPRP	-0.369
RRIRDRPPRLPRPRPRPPNHPRP	-0.205

Sequence	shrunken log2 fold change
RRIRVRPPRLPRPRPRPTDQPRP	-0.0162
RRIRERPPRLPRPRPRPPANPRP	0.0983
RRIRSRPPRLPRPRPRPQKEPRP	0.052
RRIRSRPPRLPRPRPRPHSHPRP	-0.282
RRIRPRPPRLPRPRPRPDIGPRP	-0.0448
RRIRRRPPRLPRPRPRPPHEPRP	0.449
RRIRLRPPRLPRPRPRPKCMPRP	-0.152
RRIRERPPRLPRPRPRPYCVPRP	-0.165
RRIRQRPPRLPRPRPRPMMEPRP	0.00908
RRIRFRPPRLPRPRPRPSRLPRP	0.014
RRIRPRPPRLPRPRPRPWGFPRP	-0.129
RRIRSRPPRLPRPRPRPCIEPRP	-0.21
RRIRTRPPRLPRPRPRPVQMPRP	0.000776
RRIRARPPRLPRPRPRPLAGPRP	2.52
RRIRWRPPRLPRPRPRPYSKPRP	-0.492
RRIRDRPPRLPRPRPRPTFVPRP	0.177
RRIRNRPPRLPRPRPRPTWQPRP	0.0252
RRIRGRPPRLPRPRPRPIKVPRP	0.356
RRIRYRPPRLPRPRPRPPHFPRP	-0.139
RRIRIRPPRLPRPRPRPYNHPRP	-0.138
RRIRVRPPRLPRPRPRPCTRPRP	-0.214
RRIRNRPPRLPRPRPRPAMIPRP	-0.254
RRIRMRPPRLPRPRPRPWLKPRP	-0.11
RRIRIRPPRLPRPRPRPNAHPRP	-0.0997
RRIRFRPPRLPRPRPRPRDLPRP	-0.00831

Sequence	shrunken log2 fold change
RRIRPRPPRLPRPRPRPYCTPRP	0.164
RRIRLRPPRLPRPRPRPYHYPRP	-0.16
RRIRRRPPRLPRPRPRPYQFPRP	0.0273
RRIRRRPPRLPRPRPRPAGNPRP	-0.0218
RRIRCRPPRLPRPRPRPTEPPRP	0.305
RRIRHRPPRLPRPRPRPYMWPRP	-1.86
RRIRDRPPRLPRPRPRPYICPRP	-0.148
RRIRRRPPRLPRPRPRPEPKPRP	1.46
RRIRLRPPRLPRPRPRPVMEPRP	0.233
RRIRARPPRLPRPRPRPMAGPRP	0.163
RRIRVRPPRLPRPRPRPSTRPRP	0.552
RRIRSRPPRLPRPRPRPFQWPRP	0.319
RRIRTRPPRLPRPRPRPPIDPRP	-0.231
RRIRRRPPRLPRPRPRPQRQPRP	0.175
RRIRHRPPRLPRPRPRPPEEPRP	0.791
RRIRLRPPRLPRPRPRPSNAPRP	-0.204
RRIRPRPPRLPRPRPRPRGLPRP	0.198
RRIRCRPPRLPRPRPRPIGHPRP	-0.312
RRIRIRPPRLPRPRPRPAQQPRP	-0.0315
RRIRKRPPRLPRPRPRPQDNPRP	-0.0637
RRIRPRPPRLPRPRPRPPTWPRP	0.302
RRIRNRPPRLPRPRPRPAECPRP	0.0508
RRIRTRPPRLPRPRPRPMEEPRP	-0.25
RRIRNRPPRLPRPRPRPERLPRP	0.0695
RRIRIRPPRLPRPRPRPDDNPRP	-0.27
